Test results taken from patent US11473061B2, “Systems and methods for growth of intestinal cells in microfluidic devices” (Cedars-Sinai Medical Center, priority 2016, dated 2022).

What was measured:
iFGEs = assay: Seahorse mitochondrial stress test in iFGEs; type: cell-based, human; settings: low-dose EDC treatment
Protocol: (§2) The Seahorse XF^e24 Extracellular Flux Analyzer (Seahorse Biosciences) was used to perform mitochondrial stress tests and obtain real-time measurements of oxygen consumption rate (OCR) in cells. iFGEs and iHTNS treated with or without EDCs were seeded in a 24-well Seahorse culture plate at a density of 10,000-15,000 cells/well. For analysis of OCR, cells were reconstituted in Seahorse base medium and were allowed to settle for 1 hour at 37° C. in non-CO2 incubator before measurements. Chemical reagents (Sigma) were used at final concentrations as follows: 1 μM Oligomycin—an ATP synthase inhibitor, 1 μM (FCCP) carbonyl cyanide 4-(trifluoromethoxy)phenylhydrazone—an uncoupling agent, and a mixture of 0.50 μM antimycin A—a cytochrome C reductase inhibitor and 0.5 μM rotenone—a complex I inhibitor. Results were normalized to protein concentration determined by BCA assay (Thermo Scientific).

iHTNs = assay: Seahorse mitochondrial stress test in iHTNs; type: cell-based, human; settings: low-dose EDC treatment
Protocol: as §2

[1] = tested on: human intestinal epithelial cells derived from IPSCs; assay: Transepithelial electrical resistance (TEER) in microfluidic chips; type: cell-based; settings: 10 ng/ml of IFNgamma, basal administration, over time
Protocol: (§1) Human intestinal epithelial cells derived from IPSCs were treated with 10 ng/ml of IFNgamma. The basal administration of IFNg leads to a decrease in transepithelial resistance and an increase in the efflux of dextran FITC in human intestinal epithelial cells derived from IPSCs. Basically this means that the intestinal epithelium is more permeable in response to this cytokine.

hindgut intestinal cells = assay: TEER of hindgut intestinal cells grown in transwell; type: cell-based, human; settings: for TEER / transepithelial resistance: transwell, compared to control
Text: FIG. 76. Depiction of exemplary transwell apparatus, including deposit of cells on a membrane and measurement of electrical properties via electrodes spanning both sides of the chamber.
FIG. 79. TEER measurement of hindgut intestinal cells growth in transwell.
FIG. 81. Another depiction of IFNγ responsiveness for cells grown in a transwell system.

[2] = tested on: human intestinal epithelial cells derived from IPSCs; assay: Dextran FITC permeability of iPSC-derived intestinal epithelium; type: cell-based; settings: for basal accumulation of FITC dextran: after addition to the apical layer; for permeability co-efficient (FITC dextran added to the apical channel): microfluidic chips
Protocol: as §1

Caco2 cells = assay: IFNgamma response of Caco-2 cells on chips; type: cell-based, human
[3] = tested on: STAT1 and IFNgamma responsive genes; assay: IFNgamma response of iPSC-derived intestinal cells in small microfluidic device; type: cell-based, human; settings: IFNgamma administered to the lower channel
Protocol: In one embodiment, iPSCs were directed to form HIOs and were subsequently dissociated to a single cell suspension. These cells were then seeded into a small microfluidic device (SMD) which is composed of two chambers separated by a porous flexible membrane. See, FIG. 40.

[4] = human intestinal epithelial cells derived from IPSCs

## O=C(O)C(F)(F)C(F)(F)C(F)(F)C(F)(F)C(F)(F)C(F)(F)C(F)(F)F [PFOA, perfluorooctanoic acid]
iFGEs
  effect on spare respiratory capacity: did not show any effect
iHTNs
  effect on spare respiratory capacity: did not show any effect

## TNFalpha
[1]; n=4
  transepithelial electrical resistance (TEER): increased TEER over time comparable to controls
Hindgut intestinal cells; transwell system
  intestinal permeability: does not elicit any change
[2]; [4]
  basal accumulation of FITC dextran: comparable
[2]; human intestinal epithelial cells derived from IPSCs, microfluidic cultures
  intestinal permeability: does not elicit any change
[2]
  permeability co-efficient (FITC dextran added to the apical channel): comparable

## tributyltin [TBT]
iHTNs
  effect on spare respiratory capacity: significant impairment

B1: IFNgamma: inflammatory cytokine interferon-gamma (protein, UniProt P01579 24-161, looked up)
Interferon gamma: QDPYVKEAENLKKYFNAGHSDVADNGTLFLGILKNWKEESDRKIMQSQIVSFYFKLFKNFKDDQSIQKSVETIKEDMNVKFFNSNKKKRDDFEKLTNYSVTDLNVQRKAIHELIQVMAELSPAAKTGKRKRSQMLFRG
[1]; n=4
  transepithelial electrical resistance (TEER): loss
[1]; n=4, listed as IFNg
  transepithelial electrical resistance (TEER): decrease
Hindgut intestinal cells
  TEER / transepithelial resistance: decrease
Hindgut intestinal cells; listed as IFNγ
  TEER / transepithelial resistance: increase
Caco2 cells; Caco2 cells
  genes associated with intestinal epithelial subtypes: no corresponding upregulation
Caco2 cells; Caco-2 epithelial cells grown on chips vs enteroids grown on chips
  response to IFN-gamma (relative expression of gene markers): do not show the same response
[3]
  IFNgamma responsive genes (IDO1, GBP4 and/or GBP5): significant upregulation
  phospholipase A2 group 2A and Muc4 expression: upregulated
  phosphorylation of STAT1: phosphorylation
[2]; [4]
  efflux of dextran FITC: increase
[2]; human intestinal epithelial cells derived from IPSCs, listed as IFNγ
  basal accumulation of FITC dextran: basal accumulation
[2]
  permeability co-efficient (FITC dextran added to the apical channel): increase
